From patent publication US20230257470A1 (published 2023)
Changes are numbered by the printed parent chain.

T1: human FcγRIIa(H) (human, UniProt P12318 36-217)
T1 construct: also called FcgRIIaH; FcγRIIa type H
T1 sequence: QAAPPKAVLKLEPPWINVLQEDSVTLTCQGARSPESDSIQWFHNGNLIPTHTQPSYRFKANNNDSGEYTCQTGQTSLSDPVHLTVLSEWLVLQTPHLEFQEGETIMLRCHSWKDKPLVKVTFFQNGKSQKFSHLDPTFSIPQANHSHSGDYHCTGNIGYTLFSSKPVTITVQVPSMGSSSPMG

T2: human FcγRIIb (human, UniProt P31994 43-217, limits assumed)
T2 construct: also called FcgRIIb; FcγIIB
T2 sequence: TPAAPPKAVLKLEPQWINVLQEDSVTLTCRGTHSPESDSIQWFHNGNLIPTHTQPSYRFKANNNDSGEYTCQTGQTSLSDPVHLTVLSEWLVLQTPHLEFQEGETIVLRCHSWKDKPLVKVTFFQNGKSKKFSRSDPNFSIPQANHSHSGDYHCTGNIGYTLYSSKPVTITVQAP

T3: human FcγRIIa(R) (human, UniProt P12318 36-217)
T3 construct: also called FcgRIIaR; FcγRIIa type R
T3 chain: T1 sequence with H133R

B1: GpH7-B3/GpL16-k0 variant D270V (antibody, human IgG1)
heavy: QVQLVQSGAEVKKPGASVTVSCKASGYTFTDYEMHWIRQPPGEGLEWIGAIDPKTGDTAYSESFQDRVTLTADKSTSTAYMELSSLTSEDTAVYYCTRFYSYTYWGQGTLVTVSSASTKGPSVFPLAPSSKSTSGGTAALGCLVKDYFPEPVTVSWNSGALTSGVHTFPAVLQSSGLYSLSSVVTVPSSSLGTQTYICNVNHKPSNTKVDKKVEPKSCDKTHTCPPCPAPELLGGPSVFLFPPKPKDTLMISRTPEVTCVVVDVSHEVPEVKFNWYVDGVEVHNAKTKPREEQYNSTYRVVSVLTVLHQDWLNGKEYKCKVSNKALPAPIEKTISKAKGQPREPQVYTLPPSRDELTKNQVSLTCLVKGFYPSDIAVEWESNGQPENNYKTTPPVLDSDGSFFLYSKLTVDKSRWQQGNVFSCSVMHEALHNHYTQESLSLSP
light: DIVMTQSPLSLPVTPGEPASISCQASESLVHSNRNTYLHWYLQKPGQSPQLLIYKVSNRFSGVPDRFSGSGSGTDFTLKISRVEAEDVGVYYCSQNTHVPPTFGQGTKVEIE
notes: also called B3 variant; copies: 2 + 2
B2: GpH7-B3/GpL16-k0 variant D270W (antibody, human IgG1)
heavy: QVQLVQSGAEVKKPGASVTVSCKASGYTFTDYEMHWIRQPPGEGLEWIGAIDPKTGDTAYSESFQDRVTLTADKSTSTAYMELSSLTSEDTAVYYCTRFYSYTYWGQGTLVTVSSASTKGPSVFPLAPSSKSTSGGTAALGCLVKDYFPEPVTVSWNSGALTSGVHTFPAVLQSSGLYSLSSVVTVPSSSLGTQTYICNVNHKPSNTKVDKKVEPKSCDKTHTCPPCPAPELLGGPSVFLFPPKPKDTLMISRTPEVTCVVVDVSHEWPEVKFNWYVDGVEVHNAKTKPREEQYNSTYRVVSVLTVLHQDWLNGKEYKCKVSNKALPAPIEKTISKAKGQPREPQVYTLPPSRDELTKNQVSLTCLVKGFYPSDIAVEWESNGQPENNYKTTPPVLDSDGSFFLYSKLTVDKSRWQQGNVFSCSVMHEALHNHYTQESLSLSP
light: B1 light
notes: as for B1
B3: GpH7-B3/GpL16-k0 variant D270Y (antibody, human IgG1)
heavy: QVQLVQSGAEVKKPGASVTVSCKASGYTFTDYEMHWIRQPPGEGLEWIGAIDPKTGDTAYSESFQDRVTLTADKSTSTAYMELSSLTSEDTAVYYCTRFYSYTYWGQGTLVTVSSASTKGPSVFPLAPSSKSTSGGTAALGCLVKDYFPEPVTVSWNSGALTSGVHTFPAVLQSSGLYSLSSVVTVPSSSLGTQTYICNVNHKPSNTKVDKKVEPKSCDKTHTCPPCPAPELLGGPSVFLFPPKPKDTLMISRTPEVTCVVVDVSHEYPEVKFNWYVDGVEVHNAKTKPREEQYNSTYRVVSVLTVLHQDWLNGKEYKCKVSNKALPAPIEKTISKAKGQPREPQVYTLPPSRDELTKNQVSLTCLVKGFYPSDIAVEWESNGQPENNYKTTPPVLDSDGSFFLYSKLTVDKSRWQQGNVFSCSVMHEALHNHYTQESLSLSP
light: B1 light
notes: as for B1
B4: GpH7-B3/GpL16-k0 variant P271F (antibody, human IgG1)
heavy: not shown
light: B1 light
notes: as for B1
B5: GpH7-B3/GpL16-k0 variant P271H (antibody, human IgG1)
heavy: not shown
light: B1 light
notes: as for B1
B6: GpH7-B3/GpL16-k0 variant P271R (antibody, human IgG1)
heavy: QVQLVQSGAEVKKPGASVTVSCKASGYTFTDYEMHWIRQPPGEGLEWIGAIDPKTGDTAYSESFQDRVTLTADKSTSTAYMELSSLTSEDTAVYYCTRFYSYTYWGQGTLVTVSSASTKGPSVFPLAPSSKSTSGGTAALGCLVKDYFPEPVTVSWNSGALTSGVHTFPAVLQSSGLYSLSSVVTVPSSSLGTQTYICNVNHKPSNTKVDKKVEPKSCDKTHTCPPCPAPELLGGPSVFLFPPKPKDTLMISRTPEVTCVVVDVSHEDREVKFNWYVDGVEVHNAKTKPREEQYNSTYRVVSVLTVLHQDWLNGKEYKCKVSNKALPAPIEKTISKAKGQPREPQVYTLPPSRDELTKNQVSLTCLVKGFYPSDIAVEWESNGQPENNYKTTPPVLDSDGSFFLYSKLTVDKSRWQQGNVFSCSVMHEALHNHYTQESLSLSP
light: B1 light
notes: as for B1
B7: GpH7-B3/GpL16-k0 variant P271S (antibody, human IgG1)
heavy: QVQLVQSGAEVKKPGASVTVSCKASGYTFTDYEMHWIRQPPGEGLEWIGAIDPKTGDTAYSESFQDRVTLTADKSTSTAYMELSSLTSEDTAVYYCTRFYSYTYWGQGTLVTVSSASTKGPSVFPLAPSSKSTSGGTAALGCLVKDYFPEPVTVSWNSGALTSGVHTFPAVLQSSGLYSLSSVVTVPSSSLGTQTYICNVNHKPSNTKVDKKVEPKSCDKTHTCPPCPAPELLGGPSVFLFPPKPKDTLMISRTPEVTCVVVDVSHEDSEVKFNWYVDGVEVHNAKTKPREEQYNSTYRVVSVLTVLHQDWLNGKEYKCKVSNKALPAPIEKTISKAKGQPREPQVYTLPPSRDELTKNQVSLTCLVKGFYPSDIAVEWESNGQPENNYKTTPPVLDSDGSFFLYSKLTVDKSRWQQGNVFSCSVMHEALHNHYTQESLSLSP
light: B1 light
notes: as for B1
B8: GpH7-B3/GpL16-k0 variant P271T (antibody, human IgG1)
heavy: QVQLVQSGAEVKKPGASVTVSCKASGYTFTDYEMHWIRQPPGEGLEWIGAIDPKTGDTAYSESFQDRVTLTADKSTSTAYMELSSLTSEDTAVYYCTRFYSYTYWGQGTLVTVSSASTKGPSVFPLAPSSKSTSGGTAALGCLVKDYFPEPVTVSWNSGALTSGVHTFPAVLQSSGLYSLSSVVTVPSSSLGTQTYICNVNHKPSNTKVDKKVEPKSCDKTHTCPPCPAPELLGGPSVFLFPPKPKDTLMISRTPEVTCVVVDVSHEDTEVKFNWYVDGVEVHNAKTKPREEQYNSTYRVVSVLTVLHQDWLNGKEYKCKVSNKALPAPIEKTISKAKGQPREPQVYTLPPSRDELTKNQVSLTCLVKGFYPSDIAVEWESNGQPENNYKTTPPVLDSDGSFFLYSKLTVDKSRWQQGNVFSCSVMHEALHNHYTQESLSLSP
light: B1 light
notes: as for B1
B9: GpH7-B3/GpL16-k0 variant P271W (antibody, human IgG1)
heavy: not shown
light: B1 light
notes: as for B1
B10: GpH7-B3/GpL16-k0 variant P271Y (antibody, human IgG1)
heavy: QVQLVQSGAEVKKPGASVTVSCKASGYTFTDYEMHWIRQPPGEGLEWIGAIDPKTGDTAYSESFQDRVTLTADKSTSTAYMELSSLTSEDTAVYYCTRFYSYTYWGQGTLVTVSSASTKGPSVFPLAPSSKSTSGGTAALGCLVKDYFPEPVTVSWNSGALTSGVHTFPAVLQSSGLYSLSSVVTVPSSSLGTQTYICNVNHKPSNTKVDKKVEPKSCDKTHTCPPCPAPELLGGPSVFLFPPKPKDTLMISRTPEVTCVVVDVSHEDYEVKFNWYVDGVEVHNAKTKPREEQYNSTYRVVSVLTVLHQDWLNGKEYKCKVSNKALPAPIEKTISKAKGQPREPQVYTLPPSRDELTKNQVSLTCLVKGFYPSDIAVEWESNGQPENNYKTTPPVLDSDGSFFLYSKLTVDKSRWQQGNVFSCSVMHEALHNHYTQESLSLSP
light: B1 light
notes: as for B1
B11: GpH7-B3/GpL16-k0 variant Q295D (antibody, human IgG1)
heavy: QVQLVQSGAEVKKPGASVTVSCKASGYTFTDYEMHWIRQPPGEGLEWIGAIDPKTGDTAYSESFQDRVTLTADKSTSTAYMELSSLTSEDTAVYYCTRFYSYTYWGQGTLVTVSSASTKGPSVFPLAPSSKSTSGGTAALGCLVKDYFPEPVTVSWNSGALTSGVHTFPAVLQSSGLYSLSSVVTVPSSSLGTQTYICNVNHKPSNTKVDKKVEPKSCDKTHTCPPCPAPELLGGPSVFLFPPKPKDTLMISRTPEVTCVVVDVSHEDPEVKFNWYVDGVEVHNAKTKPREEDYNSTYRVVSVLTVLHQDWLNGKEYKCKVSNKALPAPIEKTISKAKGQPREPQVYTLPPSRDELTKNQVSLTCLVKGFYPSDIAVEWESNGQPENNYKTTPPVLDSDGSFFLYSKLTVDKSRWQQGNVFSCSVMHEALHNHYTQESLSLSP
light: B1 light
notes: as for B1
B12: GpH7-B3/GpL16-k0 variant Q295F (antibody, human IgG1)
heavy: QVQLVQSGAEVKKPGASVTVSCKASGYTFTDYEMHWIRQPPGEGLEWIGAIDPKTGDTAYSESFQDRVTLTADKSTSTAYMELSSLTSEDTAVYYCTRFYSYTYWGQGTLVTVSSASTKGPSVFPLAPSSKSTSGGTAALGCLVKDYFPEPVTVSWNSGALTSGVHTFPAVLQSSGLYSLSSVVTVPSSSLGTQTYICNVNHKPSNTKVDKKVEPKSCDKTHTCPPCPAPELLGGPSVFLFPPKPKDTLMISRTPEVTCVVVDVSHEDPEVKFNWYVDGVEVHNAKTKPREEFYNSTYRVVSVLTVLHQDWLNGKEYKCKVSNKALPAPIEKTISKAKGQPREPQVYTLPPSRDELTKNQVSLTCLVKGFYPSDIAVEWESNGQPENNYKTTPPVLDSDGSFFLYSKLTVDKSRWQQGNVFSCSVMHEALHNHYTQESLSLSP
light: B1 light
notes: as for B1
B13: GpH7-B3/GpL16-k0 variant S298W (antibody, human IgG1)
heavy: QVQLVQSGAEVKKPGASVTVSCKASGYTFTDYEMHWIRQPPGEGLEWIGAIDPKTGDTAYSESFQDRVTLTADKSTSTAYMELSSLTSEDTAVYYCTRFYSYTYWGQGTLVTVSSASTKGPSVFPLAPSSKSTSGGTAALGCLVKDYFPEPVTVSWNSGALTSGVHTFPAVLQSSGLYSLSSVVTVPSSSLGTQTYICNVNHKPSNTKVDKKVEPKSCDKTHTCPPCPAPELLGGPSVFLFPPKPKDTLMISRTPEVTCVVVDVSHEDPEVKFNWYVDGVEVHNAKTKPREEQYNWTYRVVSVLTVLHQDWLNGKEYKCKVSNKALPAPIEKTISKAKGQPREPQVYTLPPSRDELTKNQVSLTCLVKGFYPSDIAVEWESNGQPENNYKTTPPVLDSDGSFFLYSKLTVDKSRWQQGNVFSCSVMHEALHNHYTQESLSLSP
light: B1 light
notes: as for B1
B14: GpH7-B3/GpL16-k0 variant Y296P (antibody, human IgG1)
heavy: not shown
light: B1 light
notes: as for B1

How the values were obtained:
Experiment in all cases: SPR (Biacore), antibody captured, FcγR as analyte; amount bound / that of GpH7-B3/GpL16-k0 x 100;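 further: FcγR binding response divided by the captured antibody amount before comparison, measured at 25 °C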
human FcγRIIa(H) = biological target: T1, human FcγRIIa(H)
human FcγRIIIa(F) = biological target: T4, human FcγRIIIa(F) (human, UniProt P08637 17-208, limits assumed)
T4 construct: also called FcgRIIIaF; FcγRIIIa allotype F158

human FcγRIIb = biological target: T2, human FcγRIIb
human FcγRIa = biological target: T5, human FcγRIa (human, UniProt P12314 16-292, limits assumed)
T5 construct: also called FcgRIa; CD64

human FcγRIIa(R) = biological target: T3, human FcγRIIa(R)

T4 sequence (P08637 other isoform, or with tags, fused parts or gaps limits assumed): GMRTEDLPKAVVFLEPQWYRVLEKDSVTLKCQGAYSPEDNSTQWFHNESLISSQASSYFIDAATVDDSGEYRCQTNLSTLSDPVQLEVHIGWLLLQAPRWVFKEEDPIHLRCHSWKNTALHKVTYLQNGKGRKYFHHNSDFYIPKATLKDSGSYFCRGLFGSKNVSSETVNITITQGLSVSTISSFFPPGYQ
T5 sequence (P12314 16-292 limits assumed): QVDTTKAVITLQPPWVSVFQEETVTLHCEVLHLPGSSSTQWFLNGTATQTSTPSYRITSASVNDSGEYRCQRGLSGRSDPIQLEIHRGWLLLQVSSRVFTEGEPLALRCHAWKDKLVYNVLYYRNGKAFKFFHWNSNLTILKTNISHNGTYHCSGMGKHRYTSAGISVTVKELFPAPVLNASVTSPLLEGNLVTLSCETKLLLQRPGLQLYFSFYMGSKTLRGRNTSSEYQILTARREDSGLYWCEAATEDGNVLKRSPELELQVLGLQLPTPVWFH

Row | Binder | relative binding activity (human FcγRIIa(H)) [GpH7-B3/GpL16-k0 = 100] | relative binding activity (human FcγRIIIa(F)) [GpH7-B3/GpL16-k0 = 100] | relative binding activity (human FcγRIIb) [GpH7-B3/GpL16-k0 = 100] | relative binding activity (human FcγRIa) [GpH7-B3/GpL16-k0 = 100] | relative binding activity (human FcγRIIa(R)) [GpH7-B3/GpL16-k0 = 100]
1 | B1 | 37 | 19 | 3 | 84 | 1
2 | B2 | 38 | 7 | -2 | 74 | -2
3 | B3 | 53 | – | -2 | 78 | -2
4 | B4 | 55 | 39 | 38 | 99 | 49
5 | B5 | 58 | 50 | 53 | 98 | 58
6 | B6 | 99 | 76 | 87 | 100 | 89
7 | B7 | 67 | 62 | 82 | 99 | 83
8 | B8 | 42 | 31 | 78 | 98 | 73
9 | B9 | 75 | 57 | 33 | 100 | 46
10 | B10 | 48 | 33 | 28 | 98 | 38
11 | B11 | 37 | 64 | 40 | 95 | 43
12 | B12 | 74 | 46 | 30 | 99 | 46
13 | B13 | 17 | 11 | – | 69 | 19
14 | B14 | 8 | – | 7 | 45 | 10
